These results are taken from US20040146968A1.

In experiment [1] the target is sDR5 protein (extracellular domain of TRAIL receptor DR5, residues 1-130) (human). As to the kind of experiment: cell-based or functional assay.
Experiment [2] shares this target. In words: SPR, BIAcore 2000, sDR5 amine-coupled to chip, TRAIL 300-900 nM as analyte, 1:1 model, 25° C., apparent KD.
The target is the same in experiment [3]. As to the kind of experiment: SPR, BIAcore 2000, sDR5 immobilised. On the technique in general: Surface plasmon resonance follows binding to a sensor surface in real time, without labels.

Substance “TRAIL deletion mutant protein containing the deletion of residues 132-135 in the AA″ loop (ligand)” registered a cytotoxic activity on human SK-HEP-1 hepatoma cells (MTT viability, concentration giving 50% cell death) in experiment [1] of more than 1000 ng/mL. Further, the Kd in experiment [2] was found to be 294 nM. In addition, the fold change of apparent KD against wild-type TRAIL in experiment [3] amounted to 18 fold.

In turn, “wild-type TRAIL protein (human, residues 114-281) (ligand)” registered a cytotoxic activity on human SK-HEP-1 hepatoma cells (MTT viability, concentration giving 50% reduction of viability) in experiment [1] of 50 ng/mL. In experiment [2], the Kd turned out to be 15.9 nM.
